Test results from patent US20200308575A1 (TWIST BIOSCIENCE, published 2020).

Biological target: program cell death protein 1 (PD-1) (UniProt Q15116 25-167, limits assumed)
Assay: SPR (Carterra LSA), IgG, monovalent affinity

Sequence of program cell death protein 1 (PD-1) (Q15116 25-167 limits assumed): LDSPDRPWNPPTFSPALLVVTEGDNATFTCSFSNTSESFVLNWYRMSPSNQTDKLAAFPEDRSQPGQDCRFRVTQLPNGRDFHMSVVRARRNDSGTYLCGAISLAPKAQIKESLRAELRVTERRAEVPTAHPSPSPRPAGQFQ

Row | Binder | Kd [nM]
1 | PD1-23 (antibody, V domains shown, IgG in the assay) VH: QVQLVQSGAEVKKPGASVKVSCKASGYPFTSYGISWVRQAPGQGLEWMGWISAYNGNTNYAQKLQGRVTMTTDTSTSTAYMELRSLRSDDTAVYYCARDVDYSSGSGYWGQGTLVTVSS VL: SYELMQPPSVSVSPGQTARITCSGDALPKQYAYWYQQKPGQAPVLVIYKDTERPSGIPERFSGSSSGTTVTLTISGVQAEDEADYYCQSADNSITYRVFGGGTKLTVL | 69.2
2 | PD1-43 (antibody, V domains shown, IgG in the assay) VH: QVQLVQSGAEVKKPGASVKVSCKASGYTFSNYGISWVRQAPGQGLEWMGWISAYSGNTKYAQKLQGRVTMTTDTSTSTAYMELRSLRSDDTAVYYCARDADYASGSGYWGQGTLVTVSS VL: SYELMQPPSVSVSPGQTARITCSGDALPRQYAHWYQQKPGQAPVLVIYKDNERPSGIPERFSGSSSGTTVTLTISGVQAEDEADYYCQSADTSTIYRVFGGGTKLTVL | 54.4
3 | PD1-11 (antibody, V domains shown, IgG in the assay) VH: QVQLVQSGAEVKKPGASVKVSCKASGYTFSNYGFSWVRQAPGQGLEWMGWISPYSGNTKYAQKLQGRVTMTTDTSTSTAYMELRSLRSDDTAVYYCARDADYSIGSGYWGQGTLVTVSS VL: SYELMQPPSVSVSPGQTARITCSGDALPRQYAHWYQQKPGQAPVLVIYKDNVRPSGIPERFSGSSSGTTVTLTISGVQAEDEADYYCQSADTSTIYRVFGGGTKLTVL | 48.1
4 | PD1-30 (antibody, V domains shown, IgG in the assay) VH: QVQLVQSGAEVKKPGASVKVSCKASGYTFNNYGVSWVRQAPGQGLEWMGWVSAYSGNTNYAQKLQGRVTMTTDTSTSTAYMELRSLRSDDTAVYYCARDADYASGSGYWGQGTLVTVSS VL: SYELMQPPSVSVSPGQTARITCSGDALSNQYTYWYQQKPGQAPVLVIYKDKKRPSGIPERFSGSSSGTTVTLTISGVQAEDEADYYCQSADNSITYRVFGGGTKLTVL | 68.8
5 | PD1-36 (antibody, V domains shown, IgG in the assay) VH: QVQLVQSGAEVKKPGASVKVSCKASGYTFSSYGVSWVRQAPGQGLEWMGWISAYSGSTNYAQKLQGRVTMTTDTSTSTAYMELRSLRSDDTAVYYCARDAVYSSGSGYWGQGTLVTVSS VL: SYELMQPPSVSVSPGQTARITCSGDALPNQYAHWYQQKPGQAPVLVIYKDTQRPSGIPERFSGSSSGTTVTLTISGVQAEDEADYYCQSADNSITYRVFGGGTKLTVL | 84.9
6 | PD1-14 (antibody, V domains shown, IgG in the assay) VH: QVQLVQSGAEVKKPGASVKVSCKASGYPFTNYGISWVRQAPGQGLEWMGWTSAYSGNTNYAQKLQGRVTMTTDTSTSTAYMELRSLRSDDTAVYYCARDFDYSSGSGYWGQGTLVTVSS VL: SYELMQPPSVSVSPGQTARITCSGDALPKQYAYWYQQKPGQAPVLVIYKDTERRSGIPERFSGSSSGTTVTLTISGVQAEDEADYYCQSADNSITYRVFGGGTKLTVL | 45.9
7 | PD1-25 (antibody, V domains shown, IgG in the assay) VH: QVQLVQSGAEVKKPGASVKVSCKASGYSFTRYGISWVRQAPGQGLEWMGWISPYSGNTKYAQKLQGRVTMTTDTSTSTAYMELRSLRSDDTAVYYCARDADYGSGSGYWGQGTLVTVSS VL: SYELMQPPSVSVSPGQTARITCSGDALPDQYAYWYQQKPGQAPVLVIYKDYERPSGIPERFSGSSSGTTVTLTISGVQAEDEADYYCQSADNSITYRVFGGGTKLTVL | 76
8 | PD1-4 (antibody, V domains shown, IgG in the assay) VH: QVQLVQSGAEVKKPGASVKVSCKASGYTFSTSGISWVRQAPGQGLEWMGWISAYNGNTNYAQKLQGRVTMTTDTSTSTAYMELRSLRSDDTAVYYCARDFDYSSGSGYWGQGTLVTVSS VL: SYELMQPPSVSVSPGQTARITCSGDALPKQYAYWYQQKPGQAPVLVIYKDTERPSGIPERFSGSSSGTTVTLTISGVQAEDEADYYCQSADNSITYRVFGGGTKLTVL | 31.4
9 | PD1-12 (antibody, V domains shown, IgG in the assay) VH: QVQLVQSGAEVKKPGASVKVSCKASGYTFNTYGVSWVRQAPGQGLEWMGWISAYSGNTRYAQKLQGRVTMTTDTSTSTAYMELRSLRSDDTAVYYCARDFDYSSGSGYWGQGTLVTVSS VL: SYELMQPPSVSVSPGQTARITCSGDALPKQYAYWYQQKPGQAPVLVIYKDTERPSGIPERFSGSSSGTTVTLTISGVQAEDEADYYCQSADNSITYRVFGGGTKLTVL | 53.5
10 | PD1-10 (antibody, V domains shown, IgG in the assay) VH: QVQLVQSGAEVKKPGASVKVSCKASGYRFTSYGISWVRQAPGQGLEWMGWISAYNGNTNYAQKLQGRVTMTTDTSTSTAYMELRSLRSDDTAVYYCARDADYASGSGYWGQGTLVTVSS VL: SYELMQPPSVSVSPGQTARITCSGDALPKQYAYWYQQKPGQAPVLVIYKDTERPSGIPERFSGSSSGTTVTLTISGVQAEDEADYYCQSADNSITYRVFGGGTKLTVL | 47.4
11 | PD1-42 (antibody, V domains shown, IgG in the assay) VH: QVQLVQSGAEVKKPGASVKVSCKASGYTFNNFGISWVRQAPGQGLEWMGWISAYNGNTDYAQKLQGRVTMTTDTSTSTAYMELRSLRSDDTAVYYCARDMDYSSGSGYWGQGTLVTVSS VL: SYELMQPPSVSVSPGQTARITCSGDALSNQYAYWYQQKPGQAPVLVIYKDTETPSGIPERFSGSSSGTTVTLTISGVQAEDEADYYCQSADNSITYRVFGGGTKLTVL | 53.6
12 | PD1-17 (antibody, V domains shown, IgG in the assay) VH: QVQLVQSGAEVKKPGASVKVSCKASGYTFSKYGISWVRQAPGQGLEWMGWISAYSGHTDYAQKLQGRVTMTTDTSTSTAYMELRSLRSDDTAVYYCARDFDYSSGSGYWGQGTLVTVSS VL: SYELMQPPSVSVSPGQTARITCSGDALPEQYAYWYQQKPGQAPVLVIYKDTERSSGIPERFSGSSSGTTVTLTISGVQAEDEADYYCQSADNSITYRVFGGGTKLTVL | 60.1
13 | PD1-27 (antibody, V domains shown, IgG in the assay) VH: QVQLVQSGAEVKKPGASVKVSCKASGYPFTNYGITWVRQAPGQGLEWMGWISAYNGNTNYAQKLQGRVTMTTDTSTSTAYMELRSLRSDDTAVYYCARDWDYSSGSGYWGQGTLVTVSS VL: SYELMQPPSVSVSPGQTARITCSGDILPKQYAYWYQQKPGQAPVLVIYKDNERASGIPERFSGSSSGTTVTLTISGVQAEDEADYYCQSADNSITYRVFGGGTKLTVL | 88.6
14 | PD1-18 (antibody, V domains shown, IgG in the assay) VH: QVQLVQSGAEVKKPGASVKVSCKASGYTFNNYGISWVRQAPGQGLEWMGWISAYSGHTDYAQKLQGRVTMTTDTSTSTAYMELRSLRSDDTAVYYCARDWDYSSGSGYWGQGTLVTVSS VL: SYELMQPPSVSVSPGQTARITCSGDALSNQYGYWYQQKPGQAPVLVIYKDNERASGIPERFSGSSSGTTVTLTISGVQAEDEADYYCQSADNSITYRVFGGGTKLTVL | 68.4
15 | PD1-48 (antibody, V domains shown) VH: EVQLVESGGGLVQPGRSLRLSCAASGFTFDDYALHWVRQAPGKDLEWVSGISWNSGSQGYADSVKGRFTISRDNAKNSLYLQMNSLRAEDTALYYCVREKGPGLTGSTADYYGLDAWGQGTMVTVSS | 64.3
16 | PD1-32 (antibody, V domains shown) VH: EVQLVESGGGLVQPGRSLRLSCAASGFTFDDYAMHWVRQAPGKDLEWVSGISWNSGSMGYADSVKGRFTISRDNAKNSLYLQMNSLRAEDTALYYCVREKGPGLTGSTADYYGLDAWGQGTMVTVSS | 92.2
17 | PD1-20 (antibody, V domains shown) VH: EVQLVESGGGLVQPGRSLRLSCAASGFTFDDYAMHWVRQAPGKDLEWVSGISWNGGSMGYADSVKGRFTISRDNAKNSLYLQMNSLRAEDTALYYCVREKGPGLTGSTADYYGLDVWGQGTMVTVSS | 109
18 | PD1-45 (antibody, V domains shown) VH: EVQLVESGGGLVQPGRSLRLSCAASGFTFDDYALHWVRQAPGKDLEWVSGISWNAGSQGYADSVKGRFTISRDNAKNSLYLQMNSLRAEDTALYYCVREKGPGLTGSTADYYGLDAWGQGTMVTVSS | 243
19 | PD1-22 (antibody, V domains shown) VH: EVQLVESGGGLVQPGRSLRLSCAASGFTFDDYAMHWVRQAPGKDLEWVSGISWNGGSMGYAASVKGRFTISRDNAKNSLYLQMNSLRAEDTALYYCVREKGPGLTGSTADYYGLDAWGQGTMVTVSS | 132
20 | PD1-50 (antibody, V domains shown) VH: EVQLVESGGGLVQPGRSLRLSCAASGFTFDDYAFHWVRQAPGKDLEWVSGISWNAGSQGYADSVKGRFTISRDNAKNSLYLQMNSLRAEDTALYYCVREKGPGLTGSTADYYGLDAWGQGTMVTVSS | 87.5
21 | PD1-38 (antibody, V domains shown) VH: EVQLVESGGGLVQPGRSLRLSCAASGFTFDDYALHWVRQAPGKDLEWVSGISWNGGSMGYADSVKGRFTISRDNAKNSLYLQMNSLRAEDTALYYCVREKGPGLTGSTADYYGLDAWGQGTMVTVSS | 204
22 | PD1-21 (antibody, V domains shown) VH: EVQLVESGGGLVQPGRSLRLSCAASGFTFDDYAMHWVRQAPGKDLEWVSGISWNGGSMGYAASVKGRFTISRDNAKNSLYLQMNSLRAEDTALYYCVREKGPGLTGSTADYYGLDVWGQGTMVTVSS | 92
23 | PD1-39 (antibody, V domains shown) VH: EVQLVESGGGLVQPGRSLRLSCAASGFTFDDYALHWVRQAPGKDLEWVSGISWNGGSYGYADSVKGRFTISRDNAKNSLYLQMNSLRAEDTALYYCVREKGPGLTGSTADYYGLDAWGQGTMVTVSS | 240
24 | PD1-49 (antibody, V domains shown) VH: EVQLVESGGGLVQPGRSLRLSCAASGFTFDDYAFHWVRQAPGKDLEWVSGISWNSGSQGYADSVKGRFTISRDNAKNSLYLQMNSLRAEDTALYYCVREKGPGLTGSTADYYGLDAWGQGTMVTVSS | 201
25 | PD1-44 (antibody, V domains shown) VH: EVQLVESGGGLVQPGRSLRLSCAASGFTFDDYALHWVRQAPGKDLEWVSGISWNSGSYGYADSVKGRFTISRDNAKNSLYLQMNSLRAEDTALYYCVREKGPGLTGSTADYYGLDAWGQGTMVTVSS | 226
26 | PD1-24 (antibody, V domains shown) VH: EVQLVESGGGLVQPGRSLRLSCAASGFTFDDYAMHWVRQAPGKDLEWVSGISWNSGSMGYAASVKGRFTISRDNAKNSLYLQMNSLRAEDTALYYCVREKGPGLTGSTADYYGLDAWGQGTMVTVSS | 190
